This is an account of results in paper PMC4453223.

The assay addresses microtubule (MT) filaments.

Sequence of DmK-4AA (P17210 other isoform, or with tags, fused parts or gaps): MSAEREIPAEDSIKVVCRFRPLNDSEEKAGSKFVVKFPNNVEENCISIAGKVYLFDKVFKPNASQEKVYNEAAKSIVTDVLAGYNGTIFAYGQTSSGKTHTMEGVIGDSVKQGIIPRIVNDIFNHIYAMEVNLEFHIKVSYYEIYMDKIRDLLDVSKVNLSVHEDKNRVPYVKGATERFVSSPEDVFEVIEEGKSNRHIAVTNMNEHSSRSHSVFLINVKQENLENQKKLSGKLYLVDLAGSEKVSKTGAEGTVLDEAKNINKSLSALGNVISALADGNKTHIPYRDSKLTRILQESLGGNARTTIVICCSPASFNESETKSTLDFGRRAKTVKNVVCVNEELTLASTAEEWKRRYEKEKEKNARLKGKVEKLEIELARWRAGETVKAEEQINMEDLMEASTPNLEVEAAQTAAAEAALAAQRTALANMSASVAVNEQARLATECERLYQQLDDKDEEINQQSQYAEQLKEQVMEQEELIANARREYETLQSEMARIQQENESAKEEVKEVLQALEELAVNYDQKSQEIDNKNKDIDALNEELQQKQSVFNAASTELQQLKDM

Substance “DmK-4AA (from UniProt P17210 1-559) (domain or fragment)” showed a half-site mantADP release (stopped flow): share of motors releasing mantADP from both heads upon the addition of MTs of 16%.
